Data: patent WO2006085967A2

Legend:
[1] = target: extracellular region of human F158 FcγRIIIa with C-terminal 6x His-tag and GST-tag (human) (UniProt P08637); assay: SPR (Table 3, not reproduced); receptor immobilized, antibody flowed
[2] = target: T1, extracellular region of human FcγRIIIa, allotype not stated where cited (His/GST-tagged) (human) (UniProt P08637); assay: AlphaScreen competition, Figure 15
[3] = target: T1, extracellular region of human FcγRIIIa, allotype not given (His/GST-tagged) (human); assay: AlphaScreen, Figure 15; fold vs WT for FcγRIIIa divided by fold vs WT for FcγRIIb
[4] = target: human FcγRIIIa on PBMCs expressing heterozygous V158/F158 FcγRIIIa (human) (UniProt P08637); assay: cell-based or functional assay
human FcγRIIIa on PBMCs expressing heterozygous V158/F158 FcγRIIIa (human), sequence (P08637 17-254): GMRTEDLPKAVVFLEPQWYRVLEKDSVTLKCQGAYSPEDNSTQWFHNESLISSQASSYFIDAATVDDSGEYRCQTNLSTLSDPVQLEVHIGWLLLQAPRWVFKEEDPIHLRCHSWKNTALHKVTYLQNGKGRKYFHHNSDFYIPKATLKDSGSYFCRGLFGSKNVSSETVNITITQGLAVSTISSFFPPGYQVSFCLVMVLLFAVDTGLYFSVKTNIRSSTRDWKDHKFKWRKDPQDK

[5] = target: extracellular region of human V158 FcγRIIIa with C-terminal 6x His-tag and GST-tag (human) (UniProt P08637); assay: SPR (Table 3, not reproduced); receptor immobilized, antibody flowed
extracellular region of human V158 FcγRIIIa with C-terminal 6x His-tag and GST-tag (human), sequence (P08637 17-208 F176V): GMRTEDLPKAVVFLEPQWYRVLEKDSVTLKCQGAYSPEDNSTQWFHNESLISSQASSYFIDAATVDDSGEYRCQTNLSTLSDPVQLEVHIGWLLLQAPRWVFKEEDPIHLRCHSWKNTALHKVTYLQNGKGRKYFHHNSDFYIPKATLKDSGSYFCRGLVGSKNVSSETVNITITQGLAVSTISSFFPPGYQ

[6] = target: extracellular region of human F158 FcγRIIIa with C-terminal 6x His-tag and GST-tag (human) (UniProt P08637); assay: SPR; receptor immobilized, antibody flowed

extracellular region of human F158 FcγRIIIa with C-terminal 6x His-tag and GST-tag (human), sequence (P08637 17-208): as the sequence (P08637 17-208 F176V) above, with V160F counted along it
T1 sequence (P08637 17-208): as the sequence (P08637 17-208 F176V) above, with V160F counted along it

| Substance | fold improvement over WT [1] [fold] | FcγRIIIa-fold (fold affinity relative to WT) [2] [fold] | ADCC log(EC50), DoHH-2 target cells [4] | fold enhancement in ADCC over WT alemtuzumab [4] [fold] | fold improvement over WT [5] [fold] | other results |
| --- | --- | --- | --- | --- | --- | --- |
| I332E alemtuzumab (antibody) | 10.1 | – | – | – | – | – |
| S239D/A330L/I332E Fc variant antibody (Figure 15; antibody context not stated) | – | 139 | – | – | – | FcγRIIIa-fold:FcγRIIb-fold ratio [3]: 18 |
| S239D/I332E Fc variant antibody (Figure 15; antibody context not stated) | – | 192 | – | – | – | – |
| S298A/E333A/K334A alemtuzumab (antibody) | 4.7 | – | – | – | 1.7 | – |

The next lines start with results.

| fold improvement over WT [1] [fold] | FcγRIIIa-fold (fold affinity relative to WT) [2] [fold] | ADCC log(EC50), DoHH-2 target cells [4] | fold enhancement in ADCC over WT alemtuzumab [4] [fold] | fold improvement over WT [5] [fold] | Substance | other results |
| --- | --- | --- | --- | --- | --- | --- |
| – | – | 0.49 | 3.3 | – | S239D/I332E alemtuzumab (antibody) | – |
| 14 | – | 0.6 | 2.5 | 4 | V264I/I332E alemtuzumab (antibody) | Kd [6]: 52 nM |
